19 sequences from the NTF2 design screens of Basanta et al. (2020) can be followed below.

The data set can be described thus: protease stability score; higher = more stable; yeast display proteolysis, trypsin and chymotrypsin.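 Also: log10 excess protease needed over predicted unfolded state with 0 meaning unfolded.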
“DDDEVRKAMRAVTNFFKGNPDQVMELIDPNAHIQVGDKSVTGREQARHLVKDVKEEQQFDVQSVDARDHGSKIVINVRFEVRHNGQPREKFMVLEMSVHNGKIQEMRVRTDS” came in with a protease stability score of 0.946.
“DDDEVRKIREFMHVMSRGDSNRAMEMADPNAHFKVGDKTINGRESFKSWLRKQREEIHVQIDDVTNTSEPGHVEVNADVTFEHNGQPDRVTLIMIARLKNGRITFLEIRRKK” came in with a protease stability score of 1.33.
“DDDEVRKLVHNLERGNFDDFVRQADPNAKVTIGNKTYHGREDIKSAYKKLKDQVDHLEVKRVRHHNGRLNVERIVVVNGRNIRYHVRLTIHNGRIKHIRYQATNEEQQKWMDEVIK” had a protease stability score of 0.559.
“DDDHARRLAERFIKAFQKGDEERAKDLAPPDVKVHVGDTQYNGREQMKQAVKDFRERVDHLSVETIKVRNGRVEVHATANINGVEVNVVFTFVFRNGKMKSMDLKYRDEEAHRNWTS”: the protease stability score was 1.19.
On to “DDDHATEIAKRMIDNFTTGNEENVKRLVDPNATVRIGDKRFHGRDHIRDAIRQIKERIDHIQVRTFTAHNGRIRITAEVKINGQSKEIHIELRIHNGHVVFFQLNVRNEEEWKTALS”, for which the protease stability score is 1.05.
The sequence “DDDHLRKVEDFMRAQLEGDPDRLKQLADPNVRMNVGEKKVHGMQDIATEQASTYKTARYEIKSLDSKTEGDKVVITMRVQADNNGQPHDETFHLKARLENGKIVEQSKENDG” came in with a protease stability score of -0.529.
As to “DDDKAKEIARQVWHAIREGDEDEAKRQFDKNARVVYGDKTVHGKEQAARMVHEWRRRIDHLEINDMKVDGNSVHVVFRYVHNGRERTQVVRIELDNGRVKNAEFTDQ”, the protease stability score was 1.46.
As for “DDDKDRKIAEEITKLLKHGNPDELARQADPNVRLEVGDHVYHGRHQMVEWVKHFWERADHLRIKDVTTRPGHVDLVATLRFDGKEAEFKVTFEFHNGRLKRVEVDPEFQKQIDS”, the protease stability score was determined as 1.56.
Next, “DDDKERKARKFAEIYMHGDWRKAHQYADPNVRIKVGDKTFQGRESLAKLVESLRKEQRLEMKRVEARVTNGRINLHLRFVVQKNGTPSHRRIHFDARMHNGKLKEMTENDKR”: 0.115.
In the case of “DDDKIRKDAETFVKILETGNQERAQRMFDENAHMRIGDKTYHGRESVHKAIKTIRDEVDHVQVRHIDIQGEEVIIQMRFDHNGNQDIMTINLVIKNGRIKSATYTRP”, the protease stability score amounted to 0.537.
The sequence “DDDKKAHKFFSEMLTAIQTGNEDQLRHLVDKDAHINVGDDVITGRENIVETWREKRERVDDLDAKVDSYHVHNGRIEIRAKESSTKNGKSDSRDFRIQARLTNGHVKLQKKEQN” gave a protease stability score of -0.348.
“DDDKKAKNWMERMLHIFREGDEDSYKNNFDENAEINIGDKTYHGRDRVQRLFSEIKHNVDHLKIQFQDFSTHNGRWVLIFEYSRTHNGHTEQNVIVVNMEQHNGKVVVKSMREK” gave a protease stability score of 0.636.
In the case of “DDDKQRKVEQVNRAWNEGDEETWKNNFDPNARVNVGEFNYEGMEEISKNIRDQKEQWRIEFKRMDLNMHGNKATAHFEATTNHNGNPDEFRKRLEAEFQGDRLKHMRVTEDR”, the protease stability score is -0.235.
As to “DDDKRAEDWAKELIKVEQEGDEDQMERNADEDVRLKYGDTEIHGREQFREHVREQIERVDSVDVRIETFHMHNGRLDMVAEVEVQVDGRKHKDRFVFHAVDHNGRMLLKSASEG”, the protease stability score was found to be 0.522.
As to “DDDKRANQFFRDMLRVFKNNNEKEAEKLFPPDANQNVGEERVHGREQFRKEFVDDARNVDHWEARIVDLDVKNGRIVIRFEFVKDVNGRKNKDVRTLTVVNHNGRLVIERVNSG”, the protease stability score amounted to 0.882.
On to “DDDKRHLAQRFFEAMKRGDPRQALNNMDPNARVVIGDKVIRGRDKFHEHIDKLNKHQRVQYRDVKLHDQGDKITANVDVVRNENGRPHRNVYVAEFSARNGRLTEVEMREDK”, for which the protease stability score is -0.138.
Consider “DDDKRKQFEDYMRKFKTGNEEDLVRNMDKDVDVHIGDKTWDGREEAAHELAQHRRHARIEYKSLSVDDKGDKLQVKMQYVDEHNGTPRDSHVVATLRLKNGKIRMIDVKRDG”, for which the protease stability score was -0.17.
As to “DDDKVRESVNNMLHAMQNGDHDRFRKMADENVRIEVGDKEYKGREKAAEHIKEVVDRVDHIQVESVKVHNGRARANLNMVVNGHSARATLNVNANNGRVVVVEMDPDQIRKAES”, the protease stability score was -0.629.
“DDDKVTKVNELLENIKRGNEDDIRDLMDPNARVRIGDKDFHGREEVSDTWKQIRDTAHLSFTDVKNDDQGDHVYVRARFHQTHNGKPDTSVLHLEVTIRNGKIKEAQFHETP” came in with a protease stability score of -0.159.
